Laboratory results reported in US20210032365A1 (Chugai, published 2021).

T1: human C1s (human, UniProt P09871 16-688)
T1 construct: Analyte in the Biacore assays; also called hC1s; serum-derived human C1s (CompTech)
T1 sequence: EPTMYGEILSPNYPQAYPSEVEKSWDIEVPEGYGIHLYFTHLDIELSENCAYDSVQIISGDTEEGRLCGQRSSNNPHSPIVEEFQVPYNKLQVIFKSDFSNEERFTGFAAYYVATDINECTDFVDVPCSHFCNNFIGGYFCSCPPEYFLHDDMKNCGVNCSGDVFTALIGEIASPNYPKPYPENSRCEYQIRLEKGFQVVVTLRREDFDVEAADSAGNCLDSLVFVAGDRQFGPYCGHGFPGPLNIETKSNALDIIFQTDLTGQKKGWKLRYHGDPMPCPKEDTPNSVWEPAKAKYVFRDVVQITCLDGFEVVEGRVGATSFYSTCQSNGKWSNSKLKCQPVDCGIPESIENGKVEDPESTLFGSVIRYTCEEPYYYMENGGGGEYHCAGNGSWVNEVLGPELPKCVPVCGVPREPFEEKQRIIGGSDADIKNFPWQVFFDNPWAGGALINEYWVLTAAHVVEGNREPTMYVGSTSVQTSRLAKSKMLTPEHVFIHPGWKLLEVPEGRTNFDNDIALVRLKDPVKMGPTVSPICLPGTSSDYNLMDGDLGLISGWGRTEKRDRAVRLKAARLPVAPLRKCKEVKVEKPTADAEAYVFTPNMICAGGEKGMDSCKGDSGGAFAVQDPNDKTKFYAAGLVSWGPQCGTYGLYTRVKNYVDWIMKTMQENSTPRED


Assays:
[1] = target: T1, human C1s; assay: SPR; KD at pH 5.8 (1.2 mM Ca) over KD at pH 7.4 (1.2 mM Ca)
Description: (§1) Each antibody was captured onto the sensor surface by protein A/G. Antibody capture levels were aimed at 200 resonance unit (RU). Serum-derived human C1s (CompTech) or recombinant C1s prepared in EXAMPLE 1 was injected at 50 nM, followed by dissociation. The sensor surface was regenerated in each cycle with 10 mM Glycine-HCl, pH 1.5. […] The ratio of KD 5.8+ to KD 7.4+(“KD 5+/7+”) and that of KD 5.8− to KD 7.4+(“KD 5−/7+”) were calculated. When the KD 5+/7+ or KD 5−/7+ of a variant is larger than that of the parent antibody IPN009VH2-SG4GK/IPN009VK3-SK1, that variant is considered to be “pH”- or “pH and Ca”-dependent, respectively. When binding response in 5(+) buffer and/or in 5(−) buffer of a variant is much lower than that of IPN09VH2/IPN009VK3, that variant is also considered as “pH”- and/or “pH and Ca”-dependent. Therefore, such mutations are effective to generate “pH”- and/or “pH and Ca”-dependent antibody. To further enhance “pH” and/or “pH and Ca” dependency, a combination of histidine mutations was conducted. Antibodies with combinations of histidine mutations were evaluated using Biacore by the method described above.
(§2) C1_1IPN92H0033 (SEQ ID NO: 17)-SG4GK/IPN93L0024 (SEQ ID NO: 18)-SK1 (IPN92H0033/IPN93L0024) was selected for further optimization. Histidine, Lysine, Arginine, aspartic acid, glutamic acid, and glutamine scanning was conducted for CDRs and certain positions of FRs of IPN92H0033/IPN93L0024. Variants with a mutation were generated and purified, and evaluated using Biacore by the method mentioned above. All variants were evaluated using Biacore as mentioned above. Mutations that improved “pH” and/or “pH and Ca” dependency were selected for the combination.

[2] = target: T1, human C1s; assay: SPR; KD at pH 5.8 (3 uM Ca) over KD at pH 7.4 (1.2 mM Ca)
Description: as §1, §2

[3] = target: T1, human C1s; assay: SPR (Biacore T200, 37C), Ab captured on protein A/G; pH 5.8, 1.2 mM Ca
Description: as §1, §2

[4] = target: T1, human C1s; assay: SPR (Biacore T200, 37C), Ab captured on protein A/G; pH 5.8, 3 uM Ca
Description: as §1, §2

Binder	KD 5(+)/7(+) [1]	KD 5(-)/7(+) [2]	Kd [3] [nM]	koff [3] [s⁻¹]	kon [3] [M⁻¹ s⁻¹]	Kd [4] [nM]	koff [4] [s⁻¹]	kon [4] [M⁻¹ s⁻¹]
C1_IPN92H0159-SG4GK/IPN93L0024-SK1 (antibody, human IgG4 S228P, kappa, name in Kabat numbering, V domains shown, Substitutions from IPN009VH2, Kabat numbering; also called IPN92H0159/IPN93L0024) VH: EVMLVESGGGLVKPGGSLRLSCAASGFTFSNYAMSWVRQAPGKGLEWVATISSGGSHTYDLDSVKGRFTISRDNSKDTLYLQMNSLRAEDTALYYCARLFTGHAMDYWGQGTLVTVSS VL: QIVLTQSPATLSLSPGERATLSCTASSSVSSSYLHWYQQKPGKAPKLWIYSTSNLASGVPSRFSGSGSGTDYTLTISSLQPEDFATYYCHQYYRLHPITFGQGTKLEIKR	8.1	3.57	16.6	0.00699	421000	7.36	0.00401	544000
C1_IPN92H0231-SG4GK/IPN93L0024-SK1 (antibody, human IgG4 S228P, kappa, name in Kabat numbering, V domains shown, Substitutions from IPN009VH2, Kabat numbering; also called IPN92H0231/IPN93L0024) VH: EVMLVESGGGLVKPGGSLRLSCAASGFTFSNYAMSWVRQAPGKGLEWVATISSGGSHTYYLDSVKGRFTISRDNSKDTLYLQMNSLRAEDTALYYCARLFTKHAMDYWGQGTLVTVSS VL: QIVLTQSPATLSLSPGERATLSCTASSSVSSSYLHWYQQKPGKAPKLWIYSTSNLASGVPSRFSGSGSGTDYTLTISSLQPEDFATYYCHQYYRLHPITFGQGTKLEIKR	7.4	4.06	9.59	0.00544	568000	5.28	0.00674	1.28e+06
C1_IPN92H0194-SG4GK/IPN93L0024-SK1 (antibody, human IgG4 S228P, kappa, name in Kabat numbering, V domains shown, Substitutions from IPN009VH2, Kabat numbering; also called IPN92H0194/IPN93L0024) VH: EVMLVESGGGLVKPGGSLRLSCAASGFTFSNYAMSWVRQAPGKGLEWVATISSGGSHTYYLDSVKERFTISRDNSKDTLYLQMNSLRAEDTALYYCARLFTGHAMDYWGQGTLVTVSS VL: QIVLTQSPATLSLSPGERATLSCTASSSVSSSYLHWYQQKPGKAPKLWIYSTSNLASGVPSRFSGSGSGTDYTLTISSLQPEDFATYYCHQYYRLHPITFGQGTKLEIKR	6.5	7.29	5.72	0.00429	751000	6.45	0.00517	802000
C1_IPN92H0162-SG4GK/IPN93L0024-SK1 (antibody, human IgG4 S228P, kappa, name in Kabat numbering, V domains shown, Substitutions from IPN009VH2, Kabat numbering; also called IPN92H0162/IPN93L0024) VH: EVMLVESGGGLVKPGGSLRLSCAASGFTFSNYAMSWVRQAPGKGLEWVATISSGGSHTYKLDSVKGRFTISRDNSKDTLYLQMNSLRAEDTALYYCARLFTGHAMDYWGQGTLVTVSS VL: QIVLTQSPATLSLSPGERATLSCTASSSVSSSYLHWYQQKPGKAPKLWIYSTSNLASGVPSRFSGSGSGTDYTLTISSLQPEDFATYYCHQYYRLHPITFGQGTKLEIKR	6.4	2.72	11.5	0.00524	456000	4.89	0.00784	1.6e+06
C1_IPN92H0232-SG4GK/IPN93L0024-SK1 (antibody, human IgG4 S228P, kappa, name in Kabat numbering, V domains shown, Substitutions from IPN009VH2, Kabat numbering; also called IPN92H0232/IPN93L0024) VH: EVMLVESGGGLVKPGGSLRLSCAASGFTFSNYAMSWVRQAPGKGLEWVATISSGGSHTYYLDSVKGRFTISRDNSKDTLYLQMNSLRAEDTALYYCARLFTRHAMDYWGQGTLVTVSS VL: QIVLTQSPATLSLSPGERATLSCTASSSVSSSYLHWYQQKPGKAPKLWIYSTSNLASGVPSRFSGSGSGTDYTLTISSLQPEDFATYYCHQYYRLHPITFGQGTKLEIKR	5.7	3.46	8.49	0.00485	570000	5.19	0.0173	3.23e+06
